Consider one substance from paper PMC4947123.

This assay deals with Ubiquitin (Ub). Description: biotin-streptavidin pull-down and mass spectrometry. The note with it: N2A cells, triplicate experiments, S0: 1.5, FDR: 0.01, read off a plot.

In the case of “bioGFP-tagged OPTN wild-type (from UniProt Q96CV9) E478G”, the other: Welch's t-test difference (logarithmized ratio of relative protein intensities, WT vs mutant) was determined as 4.1.
